Laboratory results as given in the supplement of paper PMC5998384.

Experiments:
HeLa Kyoto [1] = assay: thermal stability score vs G1/S (z-score of summed log2 fold changes over temperatures); higher = more thermally stable than in G1/S
HeLa Kyoto [2] = assay: melting temperature (median over replicates), in situ; higher = more thermally stable
HeLa Kyoto [3] = assay: solubility in G1/S (NP-40 vs SDS abundance) (log2 ratio); higher = more soluble; details: cell cycle stage: G1/S
HeLa Kyoto [4] = assay: solubility change mitosis vs G1/S (difference of NP-40 vs SDS log2 ratios) (log2 ratio difference); higher = more soluble in mitosis
[5] = cell cycle stage: early G1 (4.5 h after nocodazole release)
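Throughout, for melting temperature (median over replicates), in situ: HeLa Kyoto cells synchronized by double thymidine or nocodazole block, proteins quantified by TMT10plex mass spectrometry, three independent biological replicates.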
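Throughout, for solubility change mitosis vs G1/S (difference of NP-40 vs SDS log2 ratios): synchronized HeLa Kyoto cells (double thymidine block for G1/S, nocodazole release for mitosis), protein amounts in NP-40 versus SDS lysates quantified by mass spectrometry, three biological replicates.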
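Throughout, for solubility in G1/S (NP-40 vs SDS abundance): HeLa Kyoto cells arrested at G1/S by double thymidine block, proteins quantified by TMT10plex mass spectrometry in mild NP-40 versus SDS extracts, three biological replicates.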
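Throughout, for thermal stability score vs G1/S (z-score of summed log2 fold changes over temperatures): synchronized HeLa Kyoto cells, proteins quantified by TMT10plex mass spectrometry, three biological replicates, mitosis taken 0.5 h after nocodazole release, G1/S directly after double thymidine block.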

Row | Sequence | thermal stability score (HeLa Kyoto [1]; [5]) | thermal stability score (HeLa Kyoto [1]; cell cycle stage: mitosis) | melting temperature (HeLa Kyoto [2]; cell cycle stage: G1/S) [°C] | melting temperature (HeLa Kyoto [2]; cell cycle stage: mitosis) [°C] | solubility in G1/S (log2) (HeLa Kyoto [3]) | solubility change mitosis (log2) (HeLa Kyoto [4])
1 | MDESALLDLLECPVCLERLDASAKVLPCQHTFCKRCLLGIVGSRNELRCPECRTLVGSGVEELPSNILLVRLLDGIKQRPWKPGPGGGSGTNCTNALRSQSSTVANCSSKDLQSSQGGQQPRVQSWSPPVRGIPQLPCAKALYNYEGKEPGDLKFSKGDIIILRRQVDENWYHGEVNGIHGFFPTNFVQIIKPLPQPPPQCKALYDFEVKDKEADKDCLPFAKDDVLTVIRRVDENWAEGMLADKIGIFPISYVEFNSAAKQLIEWDKPPVPGVDAGECSSAAAQSSTAPKHSDTKKNTKKRHSFTSLTMANKSSQASQNRHSMEISPPVLISSSNPTAAARISELSGLSCSAPSQVHISTTGLIVTPPPSSPVTTGPSFTFPSDVPYQAALGTLNPPLPPPPLLAATVLASTPPGATAAAAAAGMGPRPMAGSTDQIAHLRPQTRPSVYVAIYPYTPRKEDELELRKGEMFLVFERCQDGWFKGTSMHTSKIGVFPGNYVAPVTRAVTNASQAKVPMSTAGQTSRGVTMVSPSTAGGPAQKLQGNGVAGSPSVVPAAVVSAAHIQTSPQAKVLLHMTGQMTVNQARNAVRTVAAHNQERPTAAVTPIQVQNAAGLSPASVGLSHHSLASPQPAPLMPGSATHTAAISISRASAPLACAAAAPLTSPSITSASLEAEPSGRIVTVLPGLPTSPDSASSACGNSSATKPDKDSKKEKKGLLKLLSGASTKRKPRVSPPASPTLEVELGSAELPLQGAVGPELPPGGGHGRAGSCPVDGDGPVTTAVAGAALAQDAFHRKASSLDSAVPIAPPPRQACSSLGPVLNESRPVVCERHRVVVSYPPQSEAELELKEGDIVFVHKKREDGWFKGTLQRNGKTGLFPGSFVENI [SH3RF1] | 0.34 | 1.14 | 49.3 | 51 | 0.517 | -0.13
2 | MDFEDDYTHSACRNTYQGFNGMDRDYGPGSYGGMDRDYGHGSYGGQRSMDSYLNQSYGMDNHSGGGGGSRFGPYESYDSRSSLGGRDLYRSGYGFNEPEQSRFGGSYGGRFESSYRNSLDSFGGRNQGGSSWEAPYSRSKLRPGFMEDRGRENYSSYSSFSSPHMKPAPVGSRGRGTPAYPESTFGSRNYDAFGGPSTGRGRGRGHMGDFGSIHRPGIVVDYQNKSTNVTVAAARGIKRKMMQPFNKPSGTFIKKPKLAKPMEKISLSKSPTKTDPKNEEEEKRRIEARREKQRRRREKNSEKYGDGYRMAFTCSFCKFRTFEEKDIELHLESSSHQETLDHIQKQTKFDKVVMEFLHECMVNKFKKTSIRKQQTNNQTEVVKIIEKDVMEGVTVDDHMMKVETVHCSACSVYIPALHSSVQQHLKSPDHIKGKQAYKEQIKRESVLTATSILNNPIVKARYERFVKGENPFEIQDHSQDQQIEGDEEDEEKIDEPIEEEEDEDEEEEAEEVGEVEEVEEVEEVREGGIEGEGNIQGVGEGGEVGVVGEVEGVGEVEEVEELEEETAKEEPADFPVEQPEEN [ZNF326] | 3.18 | 7.29 | 47 | 49.1 | -0.456 | 0.239
3 | MDFQHRPGGKTGSGGVASSSESNRDRRERLRQLALETIDINKDPYFMKNHLGSYECKLCLTLHNNEGSYLAHTQGKKHQTNLARRAAKEAKEAPAQPAPEKVKVEVKKFVKIGRPGYKVTKQRDSEMGQQSLLFQIDYPEIAEGIMPRHRFMSAYEQRIEPPDRRWQYLLMAAEPYETIAFKVPSREIDKAEGKFWTHWNRETKQFFLQFHFKMEKPPAPPSLPAGPPGVKRPPPPLMNGLPPRPPLPESLPPPPPGGLPLPPMPPTGPAPSGPPGPPQLPPPAPGVHPPAPVVHPPASGVHPPAPGVHPPAPGVHPPAPGVHPPTSGVHPPAPGVHPPAPGVHPPAPGVHPPAPGVHPPAPGVHPPPSAGVHPQAPGVHPAAPAVHPQAPGVHPPAPGMHPQAPGVHPQPPGVHPSAPGVHPQPPGVHPSNPGVHPPTPMPPMLRPPLPSEGPGNIPPPPPTN [SF3A2] | -1.16 | -1.41 | 50 | 50.5 | 0.0115 | 0.322
4 | MDGEEQQPPHEANVEPVVPSEASEPVPRVLSGDPQNLSDVDAFNLLLEMKLKRRRQRPNLPRTVTQLVAEDGSRVYVVGTAHFSDDSKRDVVKTIREVQPDVVVVELCQYRVSMLKMDESTLLREAQELSLEKLQQAVRQNGLMSGLMQMLLLKVSAHITEQLGMAPGGEFREAFKEASKVPFCKFHLGDRPIPVTFKRAIAALSFWQKVRLAWGLCFLSDPISKDDVERCKQKDLLEQMMAEMIGEFPDLHRTIVSERDVYLTYMLRQAARRLELPRASDAEPRKCVPSVVVGVVGMGHVPGIEKNWSTDLNIQEIMTVPPPSVSGRVSRLAVKAAFFGLLGYSLYWMGRRTASLVLSLPAAQYCLQRVTEARHK [TRABD] | 0.0844 | 0.106 | 52.2 | 50.2 | 0.184 | 0.0374
5 | MDKQNSQMNASHPETNLPVGYPPQYPPTAFQGPPGYSGYPGPQVSYPPPPAGHSGPGPAGFPVPNQPVYNQPVYNQPVGAAGVPWMPAPQPPLNCPPGLEYLSQIDQILIHQQIELLEVLTGFETNNKYEIKNSFGQRVYFAAEDTDCCTRNCCGPSRPFTLRIIDNMGQEVITLERPLRCSSCCCPCCLQEIEIQAPPGVPIGYVIQTWHPCLPKFTIQNEKREDVLKISGPCVVCSCCGDVDFEIKSLDEQCVVGKISKHWTGILREAFTDADNFGIQFPLDLDVKMKAVMIGACFLIDFMFFESTGSQEQKSGVW [PLSCR1] | -0.835 | -1.61 | 57.7 | 57.2 | 0.1 | -0.349
6 | MDLFGDLPEPERSPRPAAGKEAQKGPLLFDDLPPASSTDSGSGGPLLFDDLPPASSGDSGSLATSISQMVKTEGKGAKRKTSEEEKNGSEELVEKKVCKASSVIFGLKGYVAERKGEREEMQDAHVILNDITEECRPPSSLITRVSYFAVFDGHGGIRASKFAAQNLHQNLIRKFPKGDVISVEKTVKRCLLDTFKHTDEEFLKQASSQKPAWKDGSTATCVLAVDNILYIANLGDSRAILCRYNEESQKHAALSLSKEHNPTQYEERMRIQKAGGNVRDGRVLGVLEVSRSIGDGQYKRCGVTSVPDIRRCQLTPNDRFILLACDGLFKVFTPEEAVNFILSCLEDEKIQTREGKSAADARYEAACNRLANKAVQRGSADNVTVMVVRIGH [ILKAP] | 0.735 | 1.5 | 49.3 | 49.8 | 0.239 | -0.0534
7 | MDLLQFLAFLFVLLLSGMGATGTLRTSLDPSLEIYKKMFEVKRREQLLALKNLAQLNDIHQQYKILDVMLKGLFKVLEDSRTVLTAADVLPDGPFPQDEKLKDAFSHVVENTAFFGDVVLRFPRIVHYYFDHNSNWNLLIRWGISFCNQTGVFNQGPHSPILSLMAQELGISEKDSNFQNPFKIDRTEFIPSTDPFQKALREEEKRRKKEEKRKEIRKGPRISRSQSEL [CCDC134] | 1.83 | 1.3 | 51.7 | 53.3 | 0.505 | 0.012
8 | MDLSELERDNTGRCRLSSPVPAVCRKEPCVLGVDEAGRGPVLGPMVYAICYCPLPRLADLEALKVADSKTLLESERERLFAKMEDTDFVGWALDVLSPNLISTSMLGRVKYNLNSLSHDTATGLIQYALDQGVNVTQVFVDTVGMPETYQARLQQSFPGIEVTVKAKADALYPVVSAASICAKVARDQAVKKWQFVEKLQDLDTDYGSGYPNDPKTKAWLKEHVEPVFGFPQFVRFSWRTAQTILEKEAEDVIWEDSASENQEGLRKITSYFLNEGSQARPRSSHRYFLERGLESATSL [RNASEH2A] | 0.166 | 0.422 | 49.9 | 50.5 | 0.206 | -0.012
9 | MDMLDPGLDPAASATAAAAASHDKGPEAEEGVELQEGGDGPGAEEQTAVAITSVQQAAFGDHNIQYQFRTETNGGQVTYRVVQVTDGQLDGQGDTAGAVSVVSTAAFAGGQQAVTQVGVDGAAQRPGPAAASVPPGPAAPFPLAVIQNPFSNGGSPAAEAVSGEARFAYFPASSVGDTTAVSVQTTDQSLQAGGQFYVMMTPQDVLQTGTQRTIAPRTHPYSPKIDGTRTPRDERRRAQHNEVERRRRDKINNWIVQLSKIIPDCNADNSKTGASKGGILSKACDYIRELRQTNQRMQETFKEAERLQMDNELLRQQIEELKNENALLRAQLQQHNLEMVGEGTRQ [USF2] | -0.00434 | -0.248 | 54 | 54.6 | -0.0293 | 0.142
10 | MDPARKAGAQAMIWTAGWLLLLLLRGGAQALECYSCVQKADDGCSPNKMKTVKCAPGVDVCTEAVGAVETIHGQFSLAVRGCGSGLPGKNDRGLDLHGLLAFIQLQQCAQDRCNAKLNLTSRALDPAGNESAYPPNGVECYSCVGLSREACQGTSPPVVSCYNASDHVYKGCFDGNVTLTAANVTVSLPVRGCVQDEFCTRDGVTGPGFTLSGSCCQGSRCNSDLRNKTYFSPRIPPLVRLPPPEPTTVASTTSVTTSTSAPVRPTSTTKPMPAPTSQTPRQGVEHEASRDEEPRLTGGAAGHQDRSNSGQYPAKGGPQQPHNKGCVAPTAGLAALLLAVAAGVLL [LYPD3] | -2.56 | 3.5 | 56.9 |  | -0.405 | -0.185
